Assay results as given in patent US12460006B2, “Antibodies against integrin alpha 11 beta 1” (Momenta Pharmaceuticals, Inc., priority 2019, dated 2025).

Columns and labels:
[1] = test system: CHO cell lines expressing α11; experiment: Collagen gel contraction assay; type: cell-based, human
Method: 24-well plates were blocked with 2% BSA in PBS overnight at 37° C. The following day, the plates were washed 3 times with PBS before being used in the assay. Human CHO cell lines expressing α11 were harvested and resuspended at 1.25×10^6 in ExpiCHO Expression Medium (Gibco™ Cat #A2910002). The collagen gel solution was prepared by diluting 3 mg/mL stock collagen type I (Gibco™ Collagen I Rat Protein, Tail Cat #A1048301) to 1 mg/mL in the media containing the CHO cells. Sodium hydroxide was added to the solution to neutralize the pH and 400 μL of the collagen solution was added to each well of the 24-well plates. For the wells where the antibodies were included in the collagen gel solution, CHO cells were prepared at 2.5×10^6 and the antibodies were prepared at 2× final concentration in ExpiCHO media. The cells and antibodies were then combined 1:1 before the addition of the stock collagen type 1. The gels were allowed to polymerize for 60 minutes at 37° C. Antibodies were added to the ExpiCHO media, which was then layered on top of the polymerized gel (400 μL/well). The gels were incubated for 6 days at 37° C. before gel contraction was quantified. Images of each well were analyzed using Image J and gel contraction was determined as a percentage of the initial gel area.
Selected exemplary antibodies were tested for the ability to inhibit cell-mediated 3D gel contraction because this ability is directly linked to the functionality of the exemplary antibodies.

[2] = test system: α11β1 Headpiece; experiment: SPR binding to α11β1 Headpiece; design: species or system human; settings: SPR data
Method: (§1) The affinity of antibodies for human α11β1 was measured by surface plasmon resonance assay (SPR). Affinity was measured at pH 7.6 and 25° C. with a Biacore T200 instrument. Anti-HIS antibody was immobilized on the SPR sensor surface using EDC/NHS covalent attachment. HIS-tagged human α11β1 was captured on the sensor surface and a single-cycle kinetics assay was used. Increasing concentrations of test antibody were injected in series over the sensor-bound α11β1. Dissociation was monitored for 1000 seconds. A sensor surface with only anti-HIS antibody and a series of blank injections were used to double-reference subtract the data. A 1:1 Langmuir model was fit to the data to estimate the kinetic association and dissociation constants. The affinity (equilibrium dissociation constant) of the interaction was calculated by dividing the kinetic dissociation constant by the kinetic association constant. Between injection cycles α11β1 and bound antibody were removed with an injection of 10 mM glycine at pH 1.5.
(§2) The binding affinity of antibodies for the α11β1 Headpiece and α11β1 I Domain as measured by SPR is shown in FIG. 10A and FIG. 10B, respectively.

[3] = test system: A549 cells; experiment: Tumor xenograft model; type: in vivo, C.B-17 SCID mice; settings: for Days to Volume Doubling (ave, 95% CI): intraperitoneal every 3 days, 7 doses
Method: Fifty-six female C.B-17 SCID mice were inoculated with A549 cells (5×10^6 cells/mouse) subcutaneously in the flank. Once tumor volume reached ˜100 mm^3, animals were randomized amongst 7 groups of 8 mice each. Mice were then treated intraperitonealy every 3 days for a total of 7 doses with isotype controls or novel mAbs 79E3E3, 16E10 and 9G04 (2 and 20 mg/kg) or with docetaxel at 10 mg/kg every 4 days for a total of 6 doses. Tumor volumes and body weights were recorded twice a week with a gap of 2-3 days in between two measurements until any of the following conditions defined were observed: loss of 20% or more body weight; tumors that inhibit normal physiological function such as eating, drinking, and mobility; ulcerated tumors; tumor size greater than 2000 mm^3 and clinical observations of prostration, paralysis, seizures and hemorrhages.
In this example, studies were performed to determine if inhibition of α11β1 function with mAb results in xenograft growth inhibition. As shown in FIG. 16 and Table 4, blocking α11β1 on mouse CAFs impeded xenograft growth in SCID mice.

[4] = molecular target: T1, α11β1 I Domain (Homo sapiens, UniProt Q9UKX5); experiment: SPR binding to α11β1 I Domain; settings: SPR data
T1 sequence (Q9UKX5 164-345 limits assumed): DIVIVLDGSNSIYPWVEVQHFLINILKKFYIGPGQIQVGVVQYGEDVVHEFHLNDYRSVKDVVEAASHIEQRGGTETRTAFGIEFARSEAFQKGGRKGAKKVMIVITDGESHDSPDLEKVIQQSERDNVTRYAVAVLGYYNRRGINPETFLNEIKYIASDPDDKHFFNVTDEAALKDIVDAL
Method: as §1, §2

B1: 16E10: rabbit anti-α11β1 mAb; heavy chain SEQ ID NO: 161, light chain SEQ ID NO: 162 (antibody)
heavy: METGLRWLLLVAVLKGVQCQSLEESGGDLVKPGASLTLTCRVSGFSFSSSYYMCWVRQAPGKGLEWIACIGTTRGSTYYATWAKGRFTISKISSTTVTLQMTSLTDADTATYFCARDATGYRINTIGLYFNLWGPGTLVTVSSGQPKAPSVFPLAPCCGDTPSSTVTLGCLVKGYLPEPVTVTWNSGTLTNGVRTFPSVRQSSGLYSLSSVVSVTSSSQPVTCNVAHPATNTKVDKTVAPSTCSKPMCPPPELPGGPSVFIFPPKPKDTLMISRTPEVTCVVVDVSQDDPEVQFTWYINNEQVRTARPPLREQQFNSTIRVVSTLPIAHQDWLRGKEFKCKVHNKALPAPIEKTISKARGQPLEPKVYTMGPPREELSSRSVSLTCMINGFYPSDISVEWEKNGKAEDNYKTTPTVLDSDGSYFLYSKLSVPTSEWQRGDVFTCSVMHEALHNHYTQKSISRSPGK
light: MDTRAPTQLLGLLLLWLPGARCAFELTQTPSSVEAAVGGTPTIKCQASQTIYSYLSWYQQKPGQPPKLLIYEASKLASGVPSRFSGSGSGTDYTLTISDLECADAATYYCQSYHGTASTEYNTFGGGTEVVVRGDPVAPTVLIFPPAADQVATGTVTIVCVANKYFPDVTVTWEVDGTTQTTGIENSKTPQNSADCTYNLSSTLTLTSTQYNSHKEYTCKVTQGTTSVVQSFNRGDC
- Inhibition of CHO-K1 gel contraction ([1]; Yes/No): Yes
- inhibition of CHO-hu α11-mediated collagen gel contraction ([1]; vs untreated): inhibited CHO-hu α11-mediated collagen gel contraction
- binding to the headpiece domain of α11β1 [2]: do not bind
- Days to Volume Doubling (ave, 95% CI) ([3]; 2mpk): 7.9 (7.5, 8.3) Days
- Days to Volume Doubling (ave, 95% CI) ([3]; 20mpk): 7.9 (7.5, 8.3) Days
- inhibition of tumor growth compared to isotype control ([3]; A549 xenograft, SCID mice): no significant inhibition of tumor growth
- binding to the I domain of α11β1 [4]: do not bind
